T1: biotin-Ly6E-rat IgG2b Fc (human | rat, biotin)
T1 chain: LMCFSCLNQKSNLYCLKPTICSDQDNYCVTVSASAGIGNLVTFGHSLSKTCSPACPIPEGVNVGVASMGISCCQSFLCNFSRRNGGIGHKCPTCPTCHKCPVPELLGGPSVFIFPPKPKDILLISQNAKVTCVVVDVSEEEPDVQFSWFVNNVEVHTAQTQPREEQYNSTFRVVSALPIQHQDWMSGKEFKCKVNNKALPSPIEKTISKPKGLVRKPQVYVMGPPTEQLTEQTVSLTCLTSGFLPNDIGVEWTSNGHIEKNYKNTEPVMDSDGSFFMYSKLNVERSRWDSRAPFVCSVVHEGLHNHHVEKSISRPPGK


Tests used:
Conditions in all cases: both partners purified
biotin-Ly6E-rat IgG2b Fc = molecular target: T1, biotin-Ly6E-rat IgG2b Fc; assay: SPR; […]; Biacore S200, […] (PBS with 0.05% Tween 20, pH 7.4); […]
[1] = molecular target: T2, human IgG Fc (Biotin-SP-ChromPure Human IgG, Fc fragment) (human, biotin (Biotin-SP)); assay: as above
[2] = molecular target: T2, human IgG Fc (Biotin-SP-ChromPure Human …); assay: ELISA; […], room temperature; […]
biotin-PDGF-bb = molecular target: T3, biotin-PDGF-bb (human, UniProt P01127 82-190, biotin); assay: SPR; […]; Biacore S200, […] (PBS with 0.05% Tween 20, pH 7.4); […]
T3 construct: also called human platelet-derived growth factor
T3 sequence (P01127 82-190): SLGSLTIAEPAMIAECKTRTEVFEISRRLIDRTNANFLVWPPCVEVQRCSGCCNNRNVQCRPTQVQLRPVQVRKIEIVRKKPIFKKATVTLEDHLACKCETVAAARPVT

[3] = molecular target: T2, human IgG Fc (Biotin-SP-ChromPure Human …); assay: SPR

| Binder | Kd [1] | IC50 [2] | further results |
| --- | --- | --- | --- |
| GCAIYHMGWMFQCKQDSDCLAGCVCGPNGFCG (designed binder) [L-EET-7] |  |  | Kd (biotin-Ly6E-rat IgG2b Fc): 22 nM |
| GCNMYSGPWRYFCKQDSDCLAGCVCGPNGFCG (designed binder) [L-EET-5] |  |  | Kd (biotin-Ly6E-rat IgG2b Fc): > 20000 nM |
| GCQAHYWYRVWFCKQDSDCLAGCVCGPNGFCG (designed binder) [Ig-EET-1] | 228 nM | 447 nM |  |
| VGECVRGRCSSISCCSQFGYCGKGPKYCG (designed binder) [Ig-AMP-4] | > 1000 nM | 151 nM |  |
| VGECVRGRCSAISCCSQFGYCGKGPKYCG (designed binder) [Ig-AMP-2] |  | 41 nM |  |
| GCAFEGESCNVQFYPCCVSMKLMCIPGNPDGTCYYL (designed binder) [P-AST-3] |  |  | Kd (biotin-PDGF-bb): > 50000 nM |
| CKGKGAKCSRLMYDCCTGSCRSGKC [WT CON] | > 20000 nM |  |  |
| GCGYWYMQWFCKQDSDCLAGCVCRPKPECG (designed binder) [Ig-EET-4] | 948 nM | 823 nM |  |
| VGECVRGRCSQISCCSQFGYCGKGPKYCG (designed binder) [Ig-AMP-3] | 353 nM | 62 nM |  |
| GECKGKGAKCSSISIHDAHCCTGSCRSGKC (designed binder) [recombinant Ig-CON-5 after TEV protease digestion] |  |  | Kd [3]: 10 nM |
| VGECVRGRCSKISCCSQFGYCGKGPKYCG (designed binder) [Ig-AMP-1] | 243 nM | 55 nM |  |
| GCQIYQSQWSYLCKQDSDCLAGCVCGPNGFCG (designed binder) [L-EET-8] |  |  | Kd (biotin-Ly6E-rat IgG2b Fc): > 20000 nM |

From publication PMC10977726 (PLOS ONE, 2024)
